How the values were obtained:
[1] = target: T1, native, intact ErbB2 extracted from the membranes of human breast cancer cells (Homo sapiens, UniProt P04626); assay: ELISA of peptide phage on solubilized membrane lysates captured with anti-ErbB2 antibody; format: binding
T1 construct: native, intact ErbB2 extracted from the membranes of human breast cancer cells; endogenous in cells; host or cells: BT474 and SKBR3 breast cancer cells (MCF7 as low-expression control)
Description: The above identified peptide phage specifically bind to native, intact ErbB2 extracted from the membranes of human breast cancer cells that overexpress ErbB2. Plates were coated with 1 μg of an antibody that binds to the intracellular domain of ErbB2, followed by 100 μl of solubilized membrane preparations from two different breast cancer cell lines that overexpress ErbB2 (BT474 and SKBR3), and probed with CB1 peptide-phage, control library phage, and 9G6 anti-ErbB2. MCF7 cells serve as a (relative) negative target control, as MCF7 breast cancer cells express only a low level of ErbB2.
Peptide phage derived from the EC-1 biases library similarly bind specifically to membrane lysates from ErbB2 expressing SKBR3 cells but not to lysates from minimally expressing MCF7 cells. (See FIG. 2B.)

[2] = target: T2, ErbB2 (pY1248, pY877) in SKBR3 cells (Homo sapiens, UniProt P04626); assay: ErbB2 phosphorylation, Western blot with phospho-specific ErbB2 antibodies and densitometry; format: cell-based
T2 construct: ErbB2 overexpressing SKBR3 cells were treated with the EC-1 free peptide; endogenous in cells; host or cells: SKBR3
Description: FIG. 6A is a Western blot analysis of SKBR3 cell lysates made at various times following 15 minute treatment with 25 μM EC-1 peptide. Blots were probed with pY1248 phospho ErbB2 antibody, pY877 phospho ErbB2 antibody and total ErbB2 antibody.
ErbB2 overexpressing SKBR3 cells were treated with the EC-1 free peptide to determine its effect on ErbB2 activation. When ErbB2 is activated it becomes phosphorylated on specific tyrosine residues (i.e., pY1248 and pY877). This is turn triggers downstream signal transduction events, culminating in increased cellular proliferation. Viable SKBR3 cells were treated with 25 μM EC-1 peptide for 15 minutes. At 0.5, 2, 4, 8, 22 and 48 hours thereafter, cell lysates were prepared and run on a Western blot using phospho-specific ErbB2 antibodies. […] (See FIG. 6B.) The peptide had no effect on total ErbB2 expression.

In the case of “WTGW C LNPEESTWGF C TGSF (WTGWCLNPEESTWGFCTGSF) [EC-1]”, the “binding to membrane lysates from ErbB2 overexpressing cells by ELISA” value ([1]; BT474 and/or SKBR3 lysates) is reported as “binding to SKBR3”, the “binding to membrane lysates from MCF7 cells by ELISA” value ([1]; MCF7 cells express only a low level of ErbB2) is reported as “not to MCF7” and the “time for which phosphorylation of ErbB2 is inhibited after treatment” value ([2]; 25 μM EC-1) is reported as “at least 8 hours”. The “effect on total ErbB2 expression” value ([2]; 25 μM EC-1 peptide) was “no effect” and the “inhibition of the phosphorylation of residues pY1248 and pY877 of ErbB2” value ([2]; 25 μM EC-1 peptide for 15 minutes, after 0.5 hrs) was 40%.
